Source: IntAct's records for PubMed 29039417

B1: Protein PTHB1 (Homo sapiens), Q3SYG4 (parent)
chain: MSLFKARDWWSTILGDKEEFDQGCLCLANVDNSGNGQDKIIVGSFMGYLRIFSPHPAKTGDGAQAEDLLLEVDLRDPVLQVEVGKFVSGTEMLHLAVLHSRKLCVYSVSGTLGNVEHGNQCQMKLMYEHNLQRTACNMTYGSFGGVKGRDLICIQSMDGMLMVFEQESYAFGRFLPGFLLPGPLAYSSRTDSFLTVSSCQQVESYKYQVLAFATDADKRQETEQQKLGSGKRLVVDWTLNIGEQALDICIVSFNQSASSVFVLGERNFFCLKDNGQIRFMKKLDWSPSCFLPYCSVSEGTINTLIGNHNNMLHIYQDVTLKWATQLPHIPVAVRVGCLHDLKGVIVTLSDDGHLQCSYLGTDPSLFQAPNVQSRELNYDELDVEMKELQKIIKDVNKSQGVWPMTEREDDLNVSVVVSPNFDSVSQATDVEVGTDLVPSVTVKVTLQNRVILQKAKLSVYVQPPLELTCDQFTFEFMTPDLTRTVSFSVYLKRSYTPSELEGNAVVSYSRPTDRNPDGIPRVIQCKFRLPLKLICLPGQPSKTASHKITIDTNKSPVSLLSLFPGFASQSDDDQVNVMGFHFLGGARITVLASKTSQRYRIQSEQFEDLWLITNELILRLQEYFEKQGVKDFACSFSGSIPLQEYFELIDHHFELRINGEKLEELLSERAVQFRAIQRRLLARFKDKTPAPLQHLDTLLDGTYKQVIALADAVEENQGNLFQSFTRLKSATHLVILLIALWQKLSADQVAILEAAFLPLQEDTQELGWEETVDAAISHLLKTCLSKSSKEQALNLNSQLNIPKDTSQLKKHITLLCDRLSKGGRLCLSTDAAAPQTMVMPGGCTTIPESDLEERSVEQDSTELFTNHRHLTAETPRPEVSPLQGVSE
partner: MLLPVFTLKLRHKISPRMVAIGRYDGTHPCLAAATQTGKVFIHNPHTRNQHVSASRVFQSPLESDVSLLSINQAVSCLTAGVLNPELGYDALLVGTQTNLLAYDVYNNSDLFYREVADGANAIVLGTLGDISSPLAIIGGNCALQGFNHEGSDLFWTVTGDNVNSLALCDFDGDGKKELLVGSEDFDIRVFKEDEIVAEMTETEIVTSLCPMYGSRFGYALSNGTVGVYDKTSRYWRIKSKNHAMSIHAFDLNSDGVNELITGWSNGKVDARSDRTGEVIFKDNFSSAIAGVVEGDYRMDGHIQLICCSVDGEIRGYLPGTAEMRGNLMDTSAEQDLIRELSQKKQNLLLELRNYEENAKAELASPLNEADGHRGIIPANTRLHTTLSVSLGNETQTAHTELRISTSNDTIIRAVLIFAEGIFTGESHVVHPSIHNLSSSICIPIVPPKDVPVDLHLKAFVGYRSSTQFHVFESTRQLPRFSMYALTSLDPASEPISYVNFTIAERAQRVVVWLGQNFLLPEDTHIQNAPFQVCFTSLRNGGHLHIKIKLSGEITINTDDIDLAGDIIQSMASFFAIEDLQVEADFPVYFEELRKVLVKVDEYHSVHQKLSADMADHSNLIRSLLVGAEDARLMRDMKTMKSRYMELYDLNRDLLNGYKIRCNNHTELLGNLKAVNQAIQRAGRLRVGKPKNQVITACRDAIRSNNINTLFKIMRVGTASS
B2: Protein PTHB1 (Homo sapiens), Q3SYG4 (parent)
chain: B1 chain
partner: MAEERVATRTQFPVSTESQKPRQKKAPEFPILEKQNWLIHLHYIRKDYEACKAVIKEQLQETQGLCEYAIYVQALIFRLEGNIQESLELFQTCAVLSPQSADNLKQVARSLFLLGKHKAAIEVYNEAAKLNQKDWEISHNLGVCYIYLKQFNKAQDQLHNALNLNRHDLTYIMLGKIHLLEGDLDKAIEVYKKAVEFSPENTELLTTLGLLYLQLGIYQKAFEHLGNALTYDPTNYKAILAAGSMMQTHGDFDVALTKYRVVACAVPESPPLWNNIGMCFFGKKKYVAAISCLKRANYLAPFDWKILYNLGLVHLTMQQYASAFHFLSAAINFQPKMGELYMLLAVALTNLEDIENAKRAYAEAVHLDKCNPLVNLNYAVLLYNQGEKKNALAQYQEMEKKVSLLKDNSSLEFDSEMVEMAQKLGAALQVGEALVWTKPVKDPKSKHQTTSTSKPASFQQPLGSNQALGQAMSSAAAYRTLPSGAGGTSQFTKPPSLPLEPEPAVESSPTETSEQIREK

Variants of: B1
Details: with bbs2_human BBS2, Q9BXC9

Row | Variant | effect of a mutation on the interaction
1 | T874K | with no effect
2 | T874E | with no effect
3 | T874A | with no effect
4 | T865K | with no effect
5 | T865E | with no effect
6 | N866E | with no effect
7 | N866A | with no effect
8 | N866K | with no effect
9 | L882K | with no effect
10 | L882E | with no effect
11 | L882A | with no effect
12 | P881K | with no effect
13 | P881A | with no effect
14 | P881E | with no effect
15 | H867E | with no effect
16 | H867K | with no effect
17 | H867A | with no effect
18 | T871K | with no effect
19 | T871A | with no effect
20 | T871E | with no effect
21 | R876K | with no effect
22 | R876E | with no effect

Row | Variant | effect of a mutation on the interaction
23 | R876A | with no effect
24 | P877K | with no effect
25 | P877E | with no effect
26 | P877A | with no effect
27 | V885E | with no effect
28 | V885A | with no effect
29 | V885K | with no effect
30 | S886K | with no effect
31 | S886E | with no effect
32 | S886A | with no effect
33 | E887A | with no effect
34 | E887K | with no effect
35 | G884K | with no effect
36 | G884A | with no effect
37 | G884E | with no effect
38 | Q883A | with no effect
39 | Q883K | with no effect
40 | Q883E | with no effect
41 | A872K | with no effect
42 | A872E | with no effect
43 | P875K | with no effect
44 | P875E | with no effect

Row | Variant | effect of a mutation on the interaction
45 | P875A | with no effect
46 | E878K | with no effect
47 | E878A | with no effect
48 | H869K | with no effect
49 | H869A | with no effect
50 | H869E | with no effect
51 | E873K | with no effect
52 | E873A | with no effect
53 | L870E | with no effect
54 | L870K | with no effect
55 | L870A | with no effect
56 | S880A | with no effect
57 | S880E | with no effect
58 | S880K | with no effect
59 | R868A | with no effect
60 | R868K | with no effect
61 | R868E | with no effect
62 | V879K | with no effect
63 | V879A | with no effect
64 | V879E | with no effect

Variants of: B2
Details: with bbs4_human BBS4, Q96RK4

Row | Variant | effect of a mutation on the interaction
65 | N412A | with no effect
66 | I801K | with no effect
67 | R854A | with no effect
68 | T771E | with no effect
69 | L665E | with no effect
70 | T861K | with no effect
71 | I612K | with no effect
72 | G585A | with no effect
73 | L759K | with no effect
74 | D429K | with no effect
75 | Q462E | with no effect
76 | F646A | with no effect
77 | D804K | with no effect
78 | Q807K | with no effect
79 | A675E | with no effect
80 | D696V | disrupting interaction strength
81 | D696E | with no effect
82 | V629K | with no effect
83 | N719K | with no effect
84 | L727A | with no effect
85 | L727K | with no effect
86 | E625K | with no effect
87 | D409E | with no effect
88 | L692A | disrupting interaction strength

Row | Variant | effect of a mutation on the interaction
89 | G565E | with no effect
90 | A774E | with no effect
91 | D762E | with no effect
92 | S509A | with no effect
93 | T874K | with no effect
94 | E668A | with no effect
95 | L465A | with no effect
96 | S425A | with no effect
97 | L870K | with no effect
98 | L757E | with no effect
99 | Q791A | with no effect
100 | E647K | disrupting interaction strength
101 | I776E | with no effect
102 | T496K | with no effect
103 | S723K | disrupting interaction strength
104 | L662E | with no effect
105 | L560K | with no effect
106 | L720E | with no effect
107 | K687E | with no effect
108 | P802K | with no effect
109 | K661E | with no effect
110 | K547E | with no effect
111 | I519E | with no effect
112 | I519K | with no effect

Row | Variant | effect of a mutation on the interaction
113 | H778E | with no effect
114 | Q597E | with no effect
115 | N448A | with no effect
116 | T865E | with no effect
117 | Q426K | with no effect
118 | Q426E | with no effect
119 | L784K | with no effect
120 | P840S | disrupting interaction strength
121 | Q524K | with no effect
122 | F476A | with no effect
123 | P540A | with no effect
124 | L452E | with no effect
125 | P641K | with no effect
126 | L620P | disrupting interaction strength
127 | V444E | with no effect
128 | V444A | with no effect
129 | V444K | with no effect
130 | I523K | with no effect
131 | A755K | with no effect
132 | E499K | with no effect
133 | L793A | with no effect
134 | N866A | with no effect
135 | E615A | with no effect
136 | E475K | with no effect

Row | Variant | effect of a mutation on the interaction
137 | I751A | with no effect
138 | L744K | with no effect
139 | L744E | with no effect
140 | E607A | with no effect
141 | G718T | disrupting interaction strength
142 | D608K | with no effect
143 | L695K | with no effect
144 | C535K | with no effect
145 | L611C | disrupting interaction strength
146 | L851E | with no effect
147 | C525K | with no effect
148 | C525E | with no effect
149 | L736E | with no effect
150 | T543K | with no effect
151 | V590K | with no effect
152 | A690E | with no effect
153 | T512K | with no effect
154 | V459K | with no effect
155 | R818K | with no effect
156 | Q621A | with no effect
157 | Q798A | with no effect
158 | I846A | with no effect
159 | F582A | with no effect
160 | P877E | with no effect

Row | Variant | effect of a mutation on the interaction
161 | T595K | with no effect
162 | A504K | with no effect
163 | R407E | with no effect
164 | V749K | with no effect
165 | G842K | with no effect
166 | D686K | with no effect
167 | F421A | with no effect
168 | S820A | with no effect
169 | L666A | with no effect
170 | G884E | with no effect
171 | K810A | with no effect
172 | P834E | with no effect
173 | F653A | with no effect
174 | L616K | with no effect
175 | D513A | with no effect
176 | F684A | with no effect
177 | L457E | with no effect
178 | L808A | with no effect
179 | L808E | with no effect
180 | P511E | with no effect
181 | E852A | with no effect
182 | D747E | with no effect
183 | R679K | with no effect
184 | N794E | with no effect
